The target in the test is prostate-specific membrane antigen (Homo sapiens (Human), UniProt Q04609). Description: cell-based or functional assay.

B1: P28BB (CAR)
chain: EVQLQQSGPELVKPGTSVRISCKTSGYTFTEYTIHWVKQSHGKSLEWIGNINPNNGGTTYNQKFEDKATLTVDKSSSTAYMELRSLTSEDSAVYYCAAGWNFDYWGQGTTVTVSSGGGGSGGGGSGGGGSDIVMTQSHKFMSTSVGDRVSIICKASQDVGTAVDWYQQKPGQSPKLLIYWASTRHTGVPDRFTGSGSGTDFTLTITNVQSEDLADYFCQQYNSYPLTFGAGTMLDLKRAAAIEVMYPPPYLDNEKSNGTIIHVKGKHLCPSPLFPGPSKPFWVLVVVGGVLACYSLLVTVAFIIFWVRSKRSRLLHSDYMNMTPRRPGPTRKHYQPYAPPRDFAAYRSRFSVVKRGRKKLLYIFKQPFMRPVQTTQEEDGCSCRFPEEEEGGCE
Consider B1, for which the “long-term T cell proliferation (absolute T cell counts over 31 days, no exogenous cytokine)” value was found to be 58 fold expansion.

Source of the values: patent publication US20150342993A1, “COMPOSITIONS AND METHODS FOR IMMUNOTHERAPY” (MEMORIAL SLOAN-KETTERING CANCER CENTER, published 2015).
